Test results from publication PMC6938514.

Legend:
[1] = molecular target: MBPeng-KFLFAK (Escherichia coli | not stated); experiment: SEC; central fractions of the monomeric or dimeric peak incubated for one week at 37 °C, then analytical SEC
[2] = molecular target: MBPeng-KFL_(PYK2) (Escherichia coli | not stated) (UniProt Q14289); experiment: SEC-SAXS; SWING beamline; 20 mM HEPES, 150 mM NaCl, 2 mM DTT, 2 mM maltose; dimer and monomer peaks fitted with models from the crystal structures
[3] = molecular target: MBPeng-KFL_(PYK2) (Escherichia coli | not stated) (UniProt Q14289); experiment: crystal structure; dimeric SEC fractions crystallised by hanging drop at 23 °C, 15 mg/ml, pH 10.5; space group P1
[4] = molecular target: MBPeng-KFL_(PYK2) (Escherichia coli | not stated) (UniProt Q14289); experiment: SEC; large-scale Superdex 200 after the amylose column; protein applied at 15 mg/ml; 20 mM HEPES pH 7.5, 150 mM NaCl, 2 mM maltose, 2 mM DTT

percent of the dimeric fraction converted into monomers after one week at 37 °C [1] | percent of the monomeric fraction converted into dimers after one week at 37 °C [1] | stoichiometry N [2] | stoichiometry N [3] | stoichiometry N [4] | Substance
20% | 20% | – | – | – | MBPeng-KFLFAK (from UniProt Q05397 805-832)
– | – | 2 | 2 | 2 | MBPeng-KFL_(PYK2) (from UniProt Q14289 790-839)
